The first test addresses human neonatal Fc-receptor (FcRn) (human) (UniProt P55899). The experiment in a line: FcRn affinity chromatography; the table in the text prints 51.8 min for 'none'.
Sequence of human neonatal Fc-receptor (FcRn) (human) (P55899 24-297 limits assumed, chain 1 of 2): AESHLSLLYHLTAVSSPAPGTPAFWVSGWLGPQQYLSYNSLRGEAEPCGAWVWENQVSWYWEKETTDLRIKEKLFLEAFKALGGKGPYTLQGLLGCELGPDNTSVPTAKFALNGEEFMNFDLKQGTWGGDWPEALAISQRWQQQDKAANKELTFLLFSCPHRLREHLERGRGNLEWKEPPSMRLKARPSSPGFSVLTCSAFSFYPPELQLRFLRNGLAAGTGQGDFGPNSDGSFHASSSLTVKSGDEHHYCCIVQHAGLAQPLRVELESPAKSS
Sequence of human neonatal Fc-receptor (FcRn) (human) (P61769 21-119 limits assumed, chain 2 of 2, further chain): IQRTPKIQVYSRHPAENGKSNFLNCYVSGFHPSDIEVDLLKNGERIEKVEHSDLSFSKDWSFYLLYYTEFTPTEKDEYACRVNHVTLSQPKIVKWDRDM
In turn, “bispecific anti-VEGF/ANG-2 antibody (knobs-into-holes), FcRn affecting mutation: none (bispecific antibody)” came in with an RT of 52.8 min.

The target is the same in a further test. The experiment in a line: FcRn affinity chromatography.
Substance “molecule with IgG1 Fc-region L234A/L235A/P329G and Y436A (symmetric) (antibody)” returned a FcRn-affinity column retention time of 41.3 min.

The target is the same in a further test. The test is described as follows: FcRn affinity chromatography, anti-VEGF/ANG-2 KiH antibody.
Consider “bispecific anti-VEGF/ANG-2 antibody (knobs-into-holes), one chain with H310A/H433A/Y436A (bispecific antibody)”, for which the retention time on FcRn affinity column was found to be 46.7 min.

As for “bispecific anti-VEGF/ANG-2 antibody (knobs-into-holes), one chain with M252Y/S254T/T256E (bispecific antibody)”, the retention time on FcRn affinity column was 56.2 min.

In turn, “bispecific anti-VEGF/ANG-2 antibody (knobs-into-holes), FcRn affecting mutation: none (bispecific antibody)” displayed a retention time on FcRn affinity column of 51.8 min.

Consider “bispecific anti-VEGF/ANG-2 antibody (knobs-into-holes), one chain with H435A (bispecific antibody)”, for which the retention time on FcRn affinity column was determined as 48.8 min.

As for “bispecific anti-VEGF/ANG-2 antibody (knobs-into-holes), one chain with H310A (bispecific antibody)”, the retention time on FcRn affinity column came to 48.4 min.

“bispecific anti-VEGF/ANG-2 antibody (knobs-into-holes), one chain with L251D/L314D/L432D (bispecific antibody)” gave a retention time on FcRn affinity column of 46.3 min.

As to “bispecific anti-VEGF/ANG-2 antibody (knobs-into-holes), one chain with I253A (bispecific antibody)”, the retention time on FcRn affinity column stood at 48.8 min.

The target is the same in another test. The test is described as follows: FcRn affinity chromatography, anti-HER2 antibody.
For “anti-HER2 antibody, L309H (symmetrically modified)”, the retention time came out at 45.5 min.

“anti-HER2 antibody, D98E (symmetrically modified)” gave a retention time of 46.2 min.

Regarding “anti-HER2 antibody, K288E (symmetrically modified)”, the retention time was found to be 45.2 min.

“anti-HER2 antibody, E258H (symmetrically modified)” showed a retention time of 45.6 min.

For the substance “anti-HER2 antibody, N434H (symmetrically modified)”, the retention time was determined as 52 min.

Substance “anti-HER2 antibody, K290H (symmetrically modified)” registered a retention time of 46.2 min.

The substance “anti-HER2 antibody, R255D (symmetrically modified)” registered a retention time of 41.4 min.

(Values after patent publication US20260274936A1.)
